For this assay, the target named is SARS-CoV-2 receptor binding domain (RBD) (SARS-CoV-2, GenBank MN985325.1 …, UniProt P0DTC2). The experiment in a line: BLI. To be noted: both partners purified.

Changes are numbered by the printed parent chain.

B1: C840 (antibody, V domains shown)
VH: QVQLVESGGGVVQPGRSLRLSCEASGFTFTAYAMHWLRQAPGKGLEWVAVILNDGSNKLYADSVKGRFTVSRDNSKNMLYLQVNSLRVDDTAVYYCARDGSVDTLMVTWFDYWGQGTLVTVSS
VL: DIQMTQSPSSLSASVGDRVTITCRASQSVNNYLNWYQQKPGQAPKLLIYAASSLQSGVPLRFSGSGSGTDFALTITSLHTEDFATYYCQQSYNTPPWTFGPGTKVEIK
notes: source: recombinant, purified
What is called Kd is the concentration at which binding is half-saturated. A lower Kd goes with a tighter complex. B1 displayed a dissociation constant (Kd) of 1.87 nM.

B2: C960 (antibody, V domains shown)
VH: QVQLVESGGGVVQPGRSLTLSCTASGFTFNRFAMFWVRQAPGKGLEWVAVISFDGSYEHYAESVKGRFAIFRDNPKNTLYLQMNSLRAEDTAVYYCAKSPINYCANGVCYPDSWGQGTLVTVSS
VL: NFMLTQPHSVSESPGKTVTISCTGSSGSIANNYVQWYQQRPGSAPTTVIFEDTQRPSGVPDRFSGSIDSSSNSASLNISGLKPEDEADYYCQSFDVNSRWVFGGGTKLTVL
notes: source: recombinant, purified
Consider B2, for which the dissociation constant (Kd) turned out to be 1.5 nM.

B3: C581 (antibody, V domains shown)
VH: EVQLVQSGAEVKKPGESLKISCKGSGYRFTSYWIAWVRQMPGKGLEWMGIIYPGDSDTRYSPSFQGQVTISADQSISTAYLQWSSLKASDTAMYYCARGGPPGGVKLELTDYWGQGALVTVSS
VL: not shown
notes: source: recombinant, purified
In the case of B3, the Kd came to 0.0725 nM.

B4: C937 (antibody, V domains shown)
VH: EVQLVESGGGLIQPGGSLRLSCAASELTVSSNYMSWVRQAPGKGLEWVSVIYPGGSTFYADSVKGRFTISRDNSKNTLYLQMNSLRAEDTAVYYCARDLGTGLFDYWGQGTLVTVSS
VL: DIQLTQSPSFLSASVGDRVTITCRASQGISSYLAWYQQKPGKAPKLLIYAASTLQSGVPSRFSGSGSGTEFTLTISSLQPEDFATYFCQLLNSNPPGTFGPGTKVDIK
notes: source: recombinant, purified
B4 showed a Kd of 4.4 nM.

B5: C953 (antibody, V domains shown)
VH: QVQLVQSGAEVKKPGSSVKVSCKASGGTFSSYAISWVRQAPGQGLEWMGRIIPILGIANYAQKFQGRVTITADKSTSTAYMELSSLRSEDTAVYYCARDSEYSSSWYSRGYYGMDVWGQGTTVTVSS
VL: not shown
notes: source: recombinant, purified
On to B5, for which the Kd was determined as 620 nM.

B6: C010 (antibody, V domains shown)
VH: EVQLVESGGGVVQPGRSLRLSCAASGFTFSSYAMHWVRQAPAKGLEWVAVILYDGSGKYYADSVKGRFTISRDNSKNTLYLQMNSLRAEDTAVYYCARDGIVDTALVTWFDYWGQGTLVTVSS
VL: not shown
notes: source: recombinant, purified
In the case of B6, the affinity, expressed as Kd, was 35.1 nM.

B7: C032 (antibody, V domains shown)
VH: EVQLVQSGAEVKKPGESLKISCKGSGYSFTSYWIGWVRQMPGKGLEWMGIIYPGDSDTRYSPSFQGQVTISADKSISTAYLQWSSLKASDTAMYYCARGVAVDWYFDLWGRGTLVTVSS
VL: QSVLTQPPSVSGAPGQRVTISCTGSSSNIGAGYDVHWYQQLPGTAPKLLIYGNSNRPSGVPDRFSGSKSGTSASLAITGLQAEDEADYYCQSYDSSLSALYVFGTGTKVTVL
notes: source: recombinant, purified
In the case of B7, the dissociation constant Kd stood at 32.1 nM.

B8: C889 (antibody, V domains shown)
VH: EVQLVESGGGLVQPGGSLRLSCAVSGFTVSSNYMTWVRQAPGKGLEWVSLIYSGTSAFYADSVKGRFTISRDNSKNTLYLQMSSLRVNDTAIYYCARDLRKDDGYSYGAFDYWGQGTLVTVSS
VL: QSALTQPASVSGSPGQSITISCSGTSSDVGAHNYVSWYQQYPGKAPKLMIFDVTDRPSGVSNRFSGSKSGNTASLTISGLQAEDEADYYCTSYTTNRSWVFGGGTKVTVL
notes: source: recombinant, purified
For the molecule B8, binding was put at a Kd of 2.46 nM.

B9: C888 (antibody, V domains shown)
VH: EVQLVESGGGLVQPGGSLRLSCAASGFTVSSNYMSWVRQAPGKGLEWVSVIYSGGSAYYADSVKGRFTISRDNSKNTLYLQMNSLRAEDTAVYYCARDLRDQDGYSYGAFDYWGQGTLVTVSS
VL: QSALTQPASVSGSPGQSITISCTGTSSDVGGYNYVSWYQQHPGKAPKLMIYDVSNRPSGVSNRFSGSKSGNTASLTISGLQAEDEADYYCSSYTSSSSWVFGGGTKLTVL
notes: source: recombinant, purified
B9: the affinity, expressed as Kd, was 7240 nM.

B10: C1009 (antibody, V domains shown)
VH: EVQLVESGGGLLQPGGSLRLSCAASGFSVSSNYMTWVRQAPGKGLEWVAAIYSGDSTYYVDSVKGRFIISRDNSKNTVYLHLSSLRAEDTAVYYCARLVGYDFRSGSDGGYFDYWGHGTLVTVSS
VL: B9 VL with V29I, G31N, Y34L, N55K, A86T, S91C, T94A, S95G, S98T
notes: source: recombinant, purified
In turn, B10 returned a Kd of 4.79 nM.

B11: C153 (antibody, V domains shown)
VH: EVQLVESGGGLIQPGGSLRLSCAASGFTVSSNYMSWVRQAPGKGLEWVSVIYSGYSTYYVDSVKGRFTISRDNSKNTLYLQMNSLRAEDTAVYYCARVGGAHSGYDGSFDYWGQGTLVTVSS
VL: B9 VL with G31S, Y34L, D52E, V53G, N55K, S91C, T94A, S95G, S98T
notes: source: recombinant, purified
B11 displayed a Kd of 1380 nM.

B12: C1008 (antibody, V domains shown)
VH: EVQLVESGGGLIQPGGSLRLSCAASGFTVSSNYMSWVRQAPGKGLEWVSVIYSGGSTYYADSVKGRFTISRDNSKNTLYLQMNSLRAEDTAVYYCARVVGYDFWSGYDGGYFDYWGQGTLVTVSS
VL: B9 VL with G31S, Y34L, D52E, N55K, S91C, T94A, S95G, S98T
notes: source: recombinant, purified
The molecule B12 returned a dissociation constant (Kd) of 208 nM.

B13: C952 (antibody, V domains shown)
VH: EVQLVQSGAEVKKPGESLTISCKDSGNSFTIYWIGWVRQMPGKGLEWMGMIYPGDSGTRYSPSFEGQVTISADESINTAYLQWRSLKASDTAMYYCVRGIAVDWYFDLWGRGTLVTVSS
VL: QSVLTQPPSVSGAPGQRVTISCTGSSSNIGAGFDVHWYQQLPGTAPKLLIYGNNNRPSGVPDRFSGSKSATSASLAITGLQAEDEADYYCQSSDSSLSGLYVFGTGTNVIV
notes: source: recombinant, purified
As for B13, binding was put at a Kd of 0.587 nM.

B14: C881 (antibody, V domains shown)
VH: EVQLVESGGGLIQPGGSLRLSCAVSGVAVSTNYMSWVRQAPGQGLEWVSTIYSGDTTYYSDSVKGRFTISRDNSKNTFYLQMNSLRVPDTAVYYCARLGGVFNGFNGSFDYWGQGTLVTVS
VL: QSALTQPASVSGSPGQSITISCIGTSSDFENYNLVSWYQQHPGKAPKVMIYEDTKRPSGVSNRFSGSKSANTASLTISGLQAEDEAEYYCCSYAGASTWVFGGGTRVTVV
notes: source: recombinant, purified
Regarding B14, binding was put at a Kd of 1.95 nM.

B15: C871 (antibody, V domains shown)
VH: EVQLVESGGGLIQTGGSLKLSCAASGFIVTNNYMSWVRQAPGKGLEWVSVIYSGGTTYYADSVKGRFTISRDISKNTLYLQMNSLKAEDTAVYYCAREGDVEGISDSWSGYSRDRYYFDHWGQGTLVTVSS
VL: QSALTQPASVSGSPGQSITISCTGTSSDVGGYNYVSWYQQHPGKAPKLMIYDVSNRPPTISNRFSGSKSGNTASLIISGLQPEDEADYYCSSFTSNNTRVFGTGTKVTVL
notes: source: recombinant, purified
B15: the affinity, expressed as Kd, was 2.76 nM.

B16: C108 (antibody, V domains shown)
VH: QVQLQESGPGLVKPSGTLSLTCAVSGGSISSTNWWSWVRQPPGKGLEWIGEIYHTGSTNYNPSLKSRVTISVDKSKNQFSLKLSSVTAADTAVYYCVRDGGRPGDAFDIWGQGTMVTVSS
VL: B9 VL with S91N, S98T, W99R, G103T, L107V
notes: source: recombinant, purified
On to B16, for which binding was put at a Kd of 21.5 nM.

B17: C954 (antibody, V domains shown)
VH: QVQLVQSGAEVKKPGSSVKVSCKASGDTFTNYAFSWMRQAPGQGLEWMGRIIPILGIVKYSQKFQDRVRISADKSTSTAYMDLSSLRSEDTAMYYCARDSEFSTSWFSRGYHGMDVWGQGTTVTVSS
VL: DIVMTQSPLSLPVTPGEPASISCRSSQSLLHGDGYNYLDWYLQKPGQSPHLLIYLGSNRTSGVSDRFSGSGSGTDFTLKISRVEAEDVGVYYCMQALQTPPTFGGGTKVEIK
notes: source: recombinant, purified
B17 registered an equilibrium dissociation constant (Kd) of 1.47 nM.

B18: C929 (antibody, V domains shown)
VH: EVQLVESGGGLIQPGGSLRLSCAASGFTVSSNYMTWVRQAPGKGLEWVSVIYSGGTTYYADSVKGRFTISRDNSKNTLYLQMNSLRAEDTAVYYCARDLVVWGMDVWGQGTTVTVSS
VL: DIQLTQSPSFLSASVGDRVTITCRASQGISSYLAWYQQKPGKAPKLLIYAASTLQSGVPSRFSGSGSGTEFTLTISSLQPEDFATYYCQLLNSYPYTFGQGTKLEIK
notes: source: recombinant, purified
For B18, the dissociation constant (Kd) is 0.791 nM.

B19: C930 (antibody, V domains shown)
VH: B18 VH with I12F, S21A, F27I, T35S, A40P, S53A, T56S, Y58F, F67L, M82I
VL: B18 VL with L90Q, S93T
notes: source: recombinant, purified
As to B19, the dissociation constant (Kd) is 0.318 nM.

B20: C934 (antibody, V domains shown)
VH: QVQLVQSGAEVKKPGASVKVSCKASGYTFTDYYIHWVRQAPGQGLEWMGWINPNSGGTNYAQKFQGRVTMTRDTSISTAYMDLSRLRSDDTAVYYCARDVIITMGRGVVFRMDVWGQGTTVTVSS
VL: not shown
notes: source: recombinant, purified
For B20, the Kd was found to be 10.8 nM.

B21: C1003 (antibody, V domains shown)
VH: QVQLVESGGGVVQPGRSLRLSCAASGFAFSSYGMNWVRQAPGKGLEWVTTVSSDGNVNYYIDSVKGRFTISRDNSKNTLYLQMNSLRGDDTAVYYCAKGPRFGWSYRGGSGFDIWGQGTMVTVSS
VL: DIQMTQSPSSLSASVGDRVTITCQASQDISNYLNWYQQKPGKAPKLLIYDASNLETGVPSRFSGSGSGTDFTFTITSLQPEDIATYYCQQYDNLPITFGQGTRLEIK
notes: source: recombinant, purified
The molecule B21 returned a Kd of 11.5 nM.

B22: C517 (antibody, V domains shown)
VH: EVQLVESGGGLVQPGGSLRLSCAASEFIVSRNYMSWVRQAPGKGLEWVSLIYSGGSTYYADSVKGRFTISRDNSKNTLYLQMNSLRAEDTAMYYCARDIAGRLDYWGQGTLVTVSS
VL: DIQMTQSPSSLSASVGDRVTITCQASQDISKYLNWYQQKPGKAPKLLIYDASNLETGVPSRFSGSGSGTDFTFTISSLQPEDFATYYCQHYDSLSRLTFGGGTKVEIK
notes: source: recombinant, purified
B22: binding was characterised by a dissociation constant (Kd) of 28.8 nM.

B23: C1002 (antibody, V domains shown)
VH: B22 VH with R31S, S35T, L50I, I51M, S53P, Y58F, M82I, S84R, M92V
VL: B22 VL with S30N, K31N, T72S, F83I, H90Q, S93N
notes: source: recombinant, purified
B23 showed a Kd of 0.00513 nM.

B24: C951 (antibody, V domains shown)
VH: B16 VH with G10R, S31T, Y53H, T55S, S57N, K74R, Y95F, V97A, A106P
VL: QSALTQPASVSGSPGQSITISCTGTSSDVGGYNYVSWYQQHPGKAPNLMIYDVSDRPSGVSNRFSGSKSGNTASLTISGLQAEDEADYYCNSFTSNSTRVFGTGTKVTV
notes: source: recombinant, purified
Take B24: the Kd was 3.34 nM.

The values above are taken from publication PMC8277577 (Nature, 2021).
